{"source": "the DeepSol protein solubility set"}
{"experiment": "soluble on expression in E. coli; label from the status in PepcDB or PDB records"}
{"sequence": "MSVEAEKAVLGTFLECPYLLKETVLTETHFSDPKHRKLFAAMKRIAQQGDEPDIVTLSTTEDVADFGGLSYLNEVSAFANETKFDQYEALVLDEWKEREKRRILVVAAQENWDIDKITTALTRLNEGRITDHHDISDLLHEVAEAPWTPTERKMGAPSGISELDKMLNGFNDGDSIILAARPSMGKTDFMIHFAKSVGWHGYLPIVFSLEMAADKIRDRLIGSIGGFNRMKLRNPYHDLSEEQKRMWIEVIGKASETRMQIFDGAGQSIADIRSKIRKAINRFPDRKPVVFIDYLTLIRPERYYGGNMHLQVTEISRAIKETAKEFSCPIITLAQLSRDVEKRSDKRPLMSDIRESGSIEQDADVVIFLYRDSYYNADADPRVAEVIVAKSRNGAVGTVRVSYNRNTGVIQDLYRP", "soluble on expression in E. coli": "not soluble"}
{"sequence": "MSVEASNQENSLSSFLLKCAFPAGTTPPLLSPPSSSGSYEEAQFSLFVNQNETEQKLFSNQSLANRDPCTIPDELHQEMKSLKKKEEAFKTSLCGFHRRGQKCAYGEKCKFAHSVHELRFPQTKRNHRNYKTVLCNNFSTTGHCKYGIRCQFIHRSMNSTSSNQSNKMENITIDLNVQSDVFRAFALDSTSLLPNWHCSALLQ", "soluble on expression in E. coli": "not soluble"}
{"sequence": "MSVEASRTCFLIDSLLNKKPKEELETEEEDEEEDEEEELSSSEVTSENDMETESASSSASSVGQPKPDFSAFHKIFSNLDFAKLAAVKRNGHHQPMLFRPECFFPLELSKHLHLVQQTFQMNVLQNLGHTLPLPFVPMLKNVAPAQKRLNNKRASYVDHSQKGNLKKYRCDVCDKTFSRSNTLITHKRIHTGEKPFKCEHCGRAFRQPGNLTRHRLTHTTVKPYVCGLCDKAFNRASNLHTHMRTHTNV", "soluble on expression in E. coli": "not soluble"}
{"sequence": "MSVIAITGSASGIGAALKELLARAGHTVIGIDRGQADIEADLSTPGGRETAVAAVLDRCGGVLDGLVCCAGVGVTAANSGLVVAVNYFGVSALLDGLAEALSRGQQPAAVIVGSIAATQPGAAELPMVEAMLAGDEARAIELAEQQGQTHLAYAGSKYAVTCLARRNVVDWAGRGVRLNVVAPGAVETPLLQASKADPRYGESTRRFVAPLGRGSEPREVAEAIAFLLGPQASFIHGSVLFVDGGMDALMRAKTF", "soluble on expression in E. coli": "soluble"}
{"sequence": "MSVKMKKCSREDLQTLQQLSIETFNDTFKEQNSPENMKAYLESAFNTEQLEKELSNMSSQFFFIYFDHEIAGYVKVNIDDAQSEEMGAESLEIERIYIKNSFQKHGLGKHLLNKAIEIALERNKKNIWLGVWEKNENAIAFYKKMGFVQTGAHSFYMGDEEQTDLIMAKTLILEHHHHHH", "soluble on expression in E. coli": "soluble"}
{"sequence": "MSVLDELYREILLDHYQSPRNFGVLPQATKQAGGMNPSCGDQVEVMVLLEGDTIADIRFQGQGCAISTASASLMTEAVKGKKVAEALELSRKFQAMVVEGAPPDPTLGDLLALQGVAKLPARVKCATLAWHALEEALR", "soluble on expression in E. coli": "soluble"}
{"sequence": "MSVQLKCDAVNCVYNRSHLCSAEEIEVQGGETTGGDATFCGTFSSKSLGNFVSSLGNMNYSGSLKQAVSAEPIMDPKVHCNAVNCTYNDQRYCHADQVEIRNEVSHTAEETECQTFYPKMSLEHHHHHH", "soluble on expression in E. coli": "not soluble"}
{"sequence": "MSWDLSTAKPPVVVDTTLRDGSHAHRHQYTVEEARAIAQALDEAGVYAIEVSHGDGLGGSSLQYGFSRTDEMELIRAVRETVRRAKVAALLLPGIGTRKELKEAVEAGIQMVRIATQCTEADISEQHFGMAKEMGLEAVGFLMMSHMRPPEFLAEQARLMEGYGADVVYIVDSAGAMLPEDAYARVKALKEALSRAKVGFHAHNNLGLAIGNTLAALAAGADWVDATLRGYGAGAGNAPLEVLAAVLDKAGLNPGLDVFKLLDAAEYVMGPILHFQPYPDRDSVAIGYAGVYSTFLLHAKRIGKELGVDPLAILLELGRRQAVAGQEDWILRVALELKEKEAGALAD", "soluble on expression in E. coli": "soluble"}
{"sequence": "MSWGTELWDQFDNLEKHTQWGIDILEKYIKFVKERTEIELSYAKQLRNLSKKYQPKKNSKEEEEYKYTSCKAFISNLNEMNDYAGQHEVISENMASQIIVDLARYVQELKQERKSNFHDGRKAQQHIETCWKQLESSKRRFERDCKEADRAQQYFEKMDADINVTKADVEKARQQAQIRHQMAEDSKADYSSILQKFNHEQHEYYHTHIPNIFQKIQEMEERRIVRMGESMKTYAEVDRQVIPIIGKCLDGIVKAAESIDQKNDSQLVIEAYKSGFEPPGDIEFEDYTQPMKRTVSDNSLSNSRGEGKPDLKFGGKSKGKLWPFIKKNKLMSLLTSPHQPPPPPPASASPSAVPNGPQSPKQQKEPLSHRFNEFMTSKPKIHCFRSLKRGLSLKLGATPEDFSNLPPEQRRKKLQQKVDELNKEIQKEMDQRDAITKMKDVYLKNPQMGDPASLDHKLAEVSQNIEKLRVETQKFEAWLAEVEGRLPARSEQARRQSGLYDSQNPPTVNNCAQDRESPDGSYTEEQSQESEMKVLATDFDDEFDDEEPLPAIGTCKALYTFEGQNEGTISVVEGETLYVIEEDKGDGWTRIRRNEDEEGYVPTSYVEVCLDKNAKDS", "soluble on expression in E. coli": "soluble"}
{"sequence": "MSWIERIKSNITPTRKASIPEGVWTKCDSCGQVLYRAELERNLEVCPKCDHHMRMTARNRLHSLLDEGSLVELGSELEPKDVLKFRDSKKYKDRLASAQKETGEKDALVVMKGTLYGMPVVAAAFEFAFMGGSMGSVVGARFVRAVEQALEDNCPLICFSASGGARMQEALMSLMQMAKTSAALAKMQERGLPYISVLTDPTMGGVSASFAMLGDLNIAEPKALIGFAGPRVIEQTVREKLPPGFQRSEFLIEKGAIDMIVRRPEMRLKLASILAKLMNLPAPNPEAPREGVVVPPVPDQEPEALEHHHHHH", "soluble on expression in E. coli": "not soluble"}
{"sequence": "MSWITNYDAAQRELLMQKVQMQMSERRFRHVLGVEETAVALAAKYGADEAKASIAALTHDYAKERPNDEFELIIRRDGFDLALLNYGNEIWHGLVGADIVQRELAIDDEEILQAIRVHTTGAAKMSLLDKIIYVADYIEPGRDFPGVKEAREIALVDLDAAVAYETKHTLLHLIEQEHKIYPKTLETYNQWVVNQK", "soluble on expression in E. coli": "not soluble"}
{"sequence": "MSYLIRVQIPDEPGSLGRVAEAVGLIGGNISSVDVVEAFSNGTVTDDMVVELPAGTMADELITAAHEVEGVEVDSIRPFSGRVDRRGQ", "soluble on expression in E. coli": "soluble"}
{"sequence": "MSYMLPHLHNGWQVDQAILSEEDRVVVIRFGHDWDPTCMKMDEVLYSIAEKVKNFAVIYLVDITEVPDFNKMYELYDPCTVMFFFRNKHIMIDLGTGNNNKINWAMEDKQEMVDIIETVYRGARKGRGLVVSPKDYSTKYRY", "soluble on expression in E. coli": "soluble"}
{"sequence": "MSYNLNLSHNIYKDAKLGTYYFRITYYDKSNTRKYITRKGFKQRKDAVKKCNEMMDELEGVGHLNRLPFDKLVEEYIDWYSARRKTSSVKALKTHTNNHLLPYFKSMDVFKMTTQDVMKFQNKKLKEGHSGDYLKKMHVYLVSLLNHAMKFHELKQNVASLVGNFEIESQKRLNYWTLEQFNQFYEALATQQQKLFFKLLFYSGARKGEIRALTWRDINFDDDFIHINKTDYHGEVTAPKTKSAIRDIYLPTHMMYDIKDYLIWYKENNIYKDDYVLFGTFYKAYSESTIDRW", "soluble on expression in E. coli": "not soluble"}
{"sequence": "MSYSKPLAYPSQKCVIKHMEVNSRFKLSHQSPSIRKIEKSTPLRIDSLTLKLDQCSVKINNILHTFRKEKLPKNMQLPQAFMCLMSKLFCGRRDPIQVKTLSIECKGSLQLPAGLCLKVSHLEILGSGVDKIADDLQPLLRGSKLQSITVNNDFNIHHPIFKTAHLLILKNPNKNLFRATAASNVMVKSTCQFLDLFDKIVELIRNWQSYGQKIGAIWNFSMRQEQFALLSLVQLRKLPGASYKGHEKFSESGRSIIIPIDNSAEVHAFVKKEQDDCNLNVIVRRRQF", "soluble on expression in E. coli": "soluble"}
{"sequence": "MSYTAEMIIRLREEKKEMRNRDFAISIGISEAELIAAYCTIGKAKRLKTDIAVLLENAPQLGTVMALTRNEHAVHEITGCFEKIVQNQHVLLTLGEIDLRIFAKQWKFCFEYEAIVLGKPTKSLHFFDQNGVAIFKLYSKDTTNMAEWNKLVDKLLHEDQSPVLDIPPKAIPNKRDIVELNVEEFRDRWRKMTDVHQLHGIISELKINRHDAVKYVGNEFAHELKREAIEIMLNQVAQQEVPIMCFVGNKGCIQIFSGQIKNIKQMGPWLNVLDKKFHLHLLIPGIKNVWCVRKPTSDGHVTSLEVFDENDEMIIQFFGMRKEGQKEREDWRSLLNSLPQSHAVAVA", "soluble on expression in E. coli": "not soluble"}
